Common to all, as to assay: two-hybrid library CCNG1;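 also: natural log of median RNA to DNA barcode read ratio; higher means stronger binding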
For one assay, the target named is T1, 4H2915-bN.
T1 chain: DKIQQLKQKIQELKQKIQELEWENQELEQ

The next assay concerns the target T2, 4H462-bN.
T2 chain: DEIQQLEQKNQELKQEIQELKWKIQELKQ

Another assay addresses T3, 4H2503-bN.
T3 chain: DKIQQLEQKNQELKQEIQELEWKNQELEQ

The next assay addresses T4, 4H182-bN.
T4 chain: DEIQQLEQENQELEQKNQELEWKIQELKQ

The next assay deals with T5, 4H2143-bN.
T5 chain: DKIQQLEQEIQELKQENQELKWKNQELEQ

Another assay addresses T6, 4H2588-bN.
T6 chain: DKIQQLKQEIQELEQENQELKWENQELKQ

The next assay has as its target T7, 4H2134-bN.
T7 chain: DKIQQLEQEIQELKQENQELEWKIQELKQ

For another assay, the target named is T8, 4H2692-bN.
T8 chain: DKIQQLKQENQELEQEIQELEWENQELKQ

The target in another assay is T9, 4H741-bN.
T9 chain: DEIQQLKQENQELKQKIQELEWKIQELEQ

For a further assay, the target named is T10, 4H2473-bN.
T10 chain: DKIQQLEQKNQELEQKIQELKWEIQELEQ

The target of a further assay is T11, 4H2717-bN.
T11 chain: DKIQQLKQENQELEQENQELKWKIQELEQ

The next assay has as its target T12, 4H492-bN.
T12 chain: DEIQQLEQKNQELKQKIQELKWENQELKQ

The target of a further assay is T13, 4H2223-bN.
T13 chain: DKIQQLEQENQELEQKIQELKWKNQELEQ

The target in the next assay is T14, 4H2438-bN.
T14 chain: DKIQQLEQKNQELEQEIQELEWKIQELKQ

For a further assay, the target named is T15, 4H40-bN.
T15 chain: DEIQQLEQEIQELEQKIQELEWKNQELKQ

For a further assay, the target named is T16, 4H908-bN.
T16 chain: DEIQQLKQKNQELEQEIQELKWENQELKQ

Another assay addresses T17, 4H575-bA.
T17 chain: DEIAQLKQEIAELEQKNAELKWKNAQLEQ

The target in another assay is T18, 4H2839-bN.
T18 chain: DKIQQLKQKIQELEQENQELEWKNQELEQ

Another assay concerns the target T19, 4H348-bN.
T19 chain: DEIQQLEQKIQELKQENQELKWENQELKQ

A further assay has as its target T20, 4H3057-bN.
T20 chain: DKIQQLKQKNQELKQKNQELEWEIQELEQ

A further assay deals with T21, 4H3277-bN.
T21 chain: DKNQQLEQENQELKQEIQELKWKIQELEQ

The target of a further assay is T22, 4H477-bN.
T22 chain: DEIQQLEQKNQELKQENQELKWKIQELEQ

The target of the next assay is T23, 4H319-bN.
T23 chain: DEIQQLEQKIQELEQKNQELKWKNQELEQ

Another assay deals with T24, P4SH.
T24 chain: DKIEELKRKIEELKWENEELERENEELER

The target in the next assay is T25, P7SH.
T25 chain: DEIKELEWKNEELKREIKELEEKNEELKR

In the next assay the target is T26, P6SH.
T26 chain: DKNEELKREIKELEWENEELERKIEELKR

In another assay the target is T27, P8SH.
T27 chain: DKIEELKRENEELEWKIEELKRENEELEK

In another assay the target is T28, P5SH.
T28 chain: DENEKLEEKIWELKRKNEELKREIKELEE

Take DEIQQLEQENQELEQKNQELEWKIQELKQ [4H182-bN]: the interaction score with 4H2915-bN was 0.186; with 4H462-bN, -0.134; in the assay with 4H2503-bN, -0.284; with 4H182-bN, -0.13; with 4H2143-bN it was -0.437; with 4H2588-bN it was -0.916. Besides, the interaction score in the assay with 4H2134-bN was -0.568; with 4H2692-bN, 0.536; with 4H741-bN, -0.228; with 4H2473-bN it was -0.481; with 4H2717-bN, 0.137; with 4H492-bN, 0.471. For the same molecule, the interaction score is -0.0217 with 4H2223-bN; -0.143 with 4H2438-bN; 0.0984 with 4H40-bN; -2.24 with 4H908-bN; -2.96 with 4H575-bA; 0.367 with 4H2839-bN. For the same molecule, the interaction score is -0.689 in the assay with 4H348-bN; 2.24 in the assay with 4H3057-bN; -0.0991 in the assay with 4H3277-bN; -1.61 with 4H477-bN; -0.552 with 4H319-bN.
With DKIEELKRKIEELKWENEELERENEELER [P4SH], the interaction score in the assay with P4SH is -0.1; with P7SH, -1.17; with P6SH, -0.892; in the assay with P8SH it was -0.776; with P5SH it was -0.643.
